Results from article PMC11751877.

B1: Nodal (ligand)
chain: HHLPDRSQLCRKVKFQVDFNLIGWGSWIIYPKQYNAYRCEGECPNPVGEEFHPTNHAYIQSLLKRYQPHRVPSTCCAPVKTKPLSMLYVDNGRVLLDHHKDMIVEECGCL

Tests used:
[1] = biological target: ALK4-Fc (Fc-fused ALK4 ligand-binding domain); assay: SPR; Biacore 3000, 25°C; about 500 RU of ALK4-Fc captured on anti-human IgG (Fc) CM5 chip, Fc-free Cripto-1 injected at varying concentrations; HBS/EPS with 0.5 M NaCl and 0.1% BSA, pH 7.4; KD = kd/ka
[2] = biological target: full-length Cripto-1-Fc (NEC-Fc), soluble full-length variant lacking the GPI anchor, fused to human IgG1 Fc (human); assay: SPR; Biacore 3000, 25°C; about 500 RU of Cripto-1-Fc construct captured on anti-human IgG (Fc) CM5 chip, Nodal injected at several concentrations; HBS/EPS (0.01 M Hepes, 0.5 M NaCl, 3 mM EDTA, 0.005% Tween 20, pH 7.4) with 0.1% BSA; 50 μL/min; fitted to a 1:1 or bivalent analyte model, KD = kd/ka; apparent
[3] = biological target: Cripto-1 EC-Fc (EGF-like and CFC domains fused to human IgG1 Fc) (human); assay: as above
[4] = biological target: Cripto-1 E-Fc (EGF-like domain fused to human IgG1 Fc) (human); assay: as above
[5] = biological target: Cripto-1 NE-Fc (N-terminal and EGF-like domains fused to human IgG1 Fc) (human); assay: as above

full-length Cripto-1-Fc (NEC-Fc), soluble full-length variant lacking the GPI anchor, fused to human IgG1 Fc (human), sequence (P13385 31-163, stated change not applied): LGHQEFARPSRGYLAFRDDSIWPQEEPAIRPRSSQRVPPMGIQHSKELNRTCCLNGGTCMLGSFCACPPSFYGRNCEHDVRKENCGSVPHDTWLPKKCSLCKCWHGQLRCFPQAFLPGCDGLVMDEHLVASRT

Molecule	Kd [1]	koff [1]	kon [1]	Kd [2]	koff [2]	kon [2]	Kd [3]	koff [3]	kon [3]	Kd [4]	koff [4]	kon [4]	Kd [5]	koff [5]	kon [5]
Fc-free Cripto-1 (soluble Cripto-1 from which the Fc fragment had been proteolytically removed) (domain or fragment)	79.9 nM	0.00179 s⁻¹	22400 M⁻¹ s⁻¹	–	–	–	–	–	–	–	–	–	–	–	–
B1	–	–	–	10.1 nM	0.0116 s⁻¹	1.14e+06 M⁻¹ s⁻¹	14.3 nM	0.000404 s⁻¹	28200 M⁻¹ s⁻¹	27.8 nM	0.00541 s⁻¹	195000 M⁻¹ s⁻¹	10.4 nM	0.00104 s⁻¹	34100 M⁻¹ s⁻¹
